# What was measured:
# [1] = target: MMP9 (Homo sapiens, UniProt P14780); assay: Comparison of binding and inhibitory properties of anti-MMP9 antibodies; conditions: AB0045 compared with AB0041
# [2] = system: CD4+ T cell; assay: EpiScreen ex vivo human T cell activation assay (immunogenicity); type: cell-based
# Procedure: The potential clinical immunogenicity of the chimeric MMP9 antibody AB0041 and the humanized MMP9 antibody AB0045 was assessed. An ex vivo human T cell activation assay, the EpiScreen (Antitope, Ltd., Cambridge, UK) was used. The T cell activation in the EpiScreen assay has been correlated to the antibody/protein therapeutic responses in patients. The response of CD4+ T cell in 20 healthy donors, representing a variety of HLA haplotypes, was examined. […] A positive control of KLH induced a response in 95% of the donors, with a magnitude of 6.34+/−2.77 (mean+/−standard deviation).
# [3] = system: collagen-induced arthritis; assay: Collagen-induced arthritis (CIA) rat model of established disease; type: in vivo
# Procedure: This example provides additional characterizations of the animals in example 7 that were treated with either vehicle, AB0041 (in the rat model) or AB0046 (in the mouse model) at 2, 10, or 50 mg/Kg, Enbrel at 10 mg/Kg, or methotrexate (MTX) at 0.5 mg/Kg.
# In addition to clinical scoring in Table 6 that was conducted in example 7, paw swelling, ankle diameter and body weights of the treated animals were measured. The measurements were conducted once a week before randomization and three times a week thereafter.
# In addition, hind limbs were examined microscopically for soft-tissue changes (edema, tissue/vessel necrosis, inflammatory cell infiltration, and fibroplasias) and cartilage and bone changes (cartilage erosion, bone erosion, periosteal bone formation, synovitis, pannus formation, and joint destruction). […] The severity scores were based on global changes in each limb.
# For anti-TNF-alpha scoring, the entire region of the limb anterior to the tarsal-metatarsal joint was scored. Anti-CD68 staining was evaluated using 3-4 images per limb of synovial membranes in the joints formed by the talus bone, with the scores of each membrane averaged and the value assigned as the overall inflammation score. […] Also, MMP9-expressing cells were identified as osteoclasts and cells of the monocyte/macrophage lineage.
# Further, serum panel analyses of terminal serum samples were characterized using ELISA. […] AB0046 titers were measured in terminal serum samples.
# [4] = system: adjuvant arthritis (AIA); assay: Adjuvant-induced arthritis (AIA) rat model of established disease; conditions: in vivo
# Excerpt: The anti-MMP9 antibody, AB0041, was efficacious in treating both inflammation and joint damage in both adjuvant and collagen-induced arthritis (AIA, CIA) rat rheumatoid arthritis models of established disease.
# [5] = system: lipopolysaccharide (LPS)-induced animal death; assay: LPS-induced septicemia model; type: in vivo, rat; conditions: after four days
# [6] = system: Lewis rats; conditions: rat, in vivo
# Procedure: AB0041 was evaluated for safety in Lewis rats in comparison to the pan-MMP inhibitor, Marimastat, in a 28-day study.
# Six rats per group were intravenously administered twice per week with either AB0041 at 50 mg/kg or Vehicle-A (10 mM sodium phosphate, pH 6.5, 140 mM sodium chloride, 0.01% Tween20). In addition, six rats per group were treated with Marimastat or Vehicle-M (50% DMSO/50% water) through a surgically implanted subcutaneous Alzet pump (Alzet, Cupertino, Calif.), which delivered at a rate of 2.5 μl/hour for a period of 28 days. The Marimastat release rate was between 6.8 to 5.7 mg/kg/day.
# Animals were observed and scored daily for signs of MSS, such as reluctance to move and avoidance of the use of the hind feet. The following system was used to score resting posture, gait and willingness to move: resting posture was scored as 0 (normal), 1 (resting on one foot) or 2 (resting on neither one foot nor two feet). Gait was scored as either 0 (normal), 1 (avoids use of one hind foot) or 2 (avoids use of both hind feet). Willingness-to-move upon stimulation was scored as either 0 (normal movement), 1 (somewhat reluctant to move), 2 (moderately reluctant to move) or 3 (very reluctant to move). In addition, the body weights were recorded twice weekly.
# Total scores were calculated as the sum of gait score, resting posture score and willingness-to-move score for each animal. Mean total scores per group were calculated as the average of the total scores from all individual animals per group per day.
# Serum was collected from all rats on one day before and days 1, 7, 10, 14, 17, 21, 24, 28 post administration. Serum was centrifuged at 10,000×g for 10 minutes and collected for storage at −20° C. Serum was subject to multianalyte serum protein analysis (RodentMAPv2.0, IDEXX Laboratories).
# Tissues and limbs from the rats were harvested and fixed in 10% neutral buffered formalin for histopathologic analysis using hematoxylin and eosin (H&E).
# [7] = AB0041 serum levels by indirect binding ELISA in the MSS study; type: in vivo, rat; conditions: Day 0 to Day 28; 50 mg/kg IV twice per week
# Procedure: Levels of AB0041 in rat serum were measured by an indirect binding ELISA. ELISA plates were coated with 2 μg/ml of […] in 50 mM sodium borate overnight at 4° C. The plates were blocked with 5% bovine serum albumin (BSA) in phosphate buffered saline, pH 7.4 (PBS) and washed with 0.05% Tween 20 in PBS (PBST). A standard curve was prepared by serially diluting AB0041 in PBST to generate a series ranging from 3,000 ng/ml to 1.5 ng/ml. Serum samples were diluted at least 1:100 in PBST then added to the pre-coated ELISA plate. After one-hour incubation, the plates were washed and polyclonal goat-anti mouse IgG-HRP detection antibody (Thermo Scientific, Fair Lawn, N.J.) was added to the plate at 1:10,000 dilution in 0.5% BSA/PBS. The plates were washed and signal was detected by addition of 3,3′,5,5′-tetramethylbenzidine (TMB) (Sigma Aldrich, St. Louis, Mo.) for 2 minutes. The reaction was stopped by addition of 1M hydrochloric acid (HCl) and absorbance at 450 nm was measured. AB0041 levels in serum were back-calculated using a four-parameter curve fit in the SoftMax software package (Molecular Devices).
# MMP9, sequence (P14780 94-707, species assumed): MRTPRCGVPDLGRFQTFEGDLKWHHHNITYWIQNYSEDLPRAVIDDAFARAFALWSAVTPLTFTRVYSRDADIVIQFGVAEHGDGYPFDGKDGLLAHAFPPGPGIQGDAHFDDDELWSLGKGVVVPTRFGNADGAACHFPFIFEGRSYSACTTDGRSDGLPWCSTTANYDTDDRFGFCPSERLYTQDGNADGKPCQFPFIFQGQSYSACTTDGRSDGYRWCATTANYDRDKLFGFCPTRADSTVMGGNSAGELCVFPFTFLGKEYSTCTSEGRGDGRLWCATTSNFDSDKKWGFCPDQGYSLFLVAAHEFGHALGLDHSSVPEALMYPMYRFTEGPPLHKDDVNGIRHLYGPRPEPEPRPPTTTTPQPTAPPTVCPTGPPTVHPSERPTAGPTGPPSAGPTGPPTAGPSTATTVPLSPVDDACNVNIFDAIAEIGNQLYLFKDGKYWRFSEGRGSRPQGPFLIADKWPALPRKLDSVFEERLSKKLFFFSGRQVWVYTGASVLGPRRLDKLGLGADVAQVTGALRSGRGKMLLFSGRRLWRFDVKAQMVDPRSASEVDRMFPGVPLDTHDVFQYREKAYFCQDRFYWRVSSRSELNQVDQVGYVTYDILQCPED
molecule,measurement,setting,value
"AB0041: mouse monoclonal antibody to human MMP9, mouse IgG2b heavy chain (SEQ ID NO: 1) and mouse kappa light chain (SEQ ID NO: 2) (antibody, listed as Mus musculus, CHAIN (1)...(470) AB0041 heavy chain; CHAIN (1)...(234) AB0041 light chain) heavy: MAVLVLFLCLVAFPSCVLSQVQLKESGPGLVAPSQSLSITCTVSGFSLLSYGVHWVRQPPGKGLEWLGVIWTGGTTNYNSALMSRLSISKDDSKSQVFLKMNSLQTDDTAIYYCARYYYGMDYWGQGTSVTVSSAKTTPPSVYPLAPGCGDTTGSSVTLGCLVKGYFPESVTVTWNSGSLSSSVHTFPALLQSGLYTMSSSVTVPSSTWPSQTVTCSVAHPASSTTVDKKLEPSGPISTINPCPPCKECHKCPAPNLEGGPSVFIFPPNIKDVLMISLTPKVTCVVVDVSEDDPDVRISWFVNNVEVHTAQTQTHREDYNSTIRVVSALPIQHQDWMSGKEFKCKVNNKDLPSPIERTISKIKGLVRAPQVYILPPPAEQLSRKDVSLTCLVVGFNPGDISVEWTSNGHTEENYKDTAPVLDSDGSYFIYSKLDIKTSKWEKTDSFSCNVRHEGLKNYYLKKTISRSPGK light: MESQIQVFVFVFLWLSGVDGDIVMTQSHKFMSTSVGDRVSITCKASQDVRNTVAWYQQKTGQSPKLLIYSSSYRNTGVPDRFTGSGSGTDFTFTISSVQAEDLAVYFCQQHYITPYTFGGGTKLEIKRADAAPTVSIFPPSSEQLTSGGASVVCFLNNFYPKDINVKWKIDGSERQNGVLNSWTDQDSKDSTYSMSSTLTLTKDEYERHNSYTCEATHKTSTSPIVKSFNRNEC",binding and inhibitory properties,[1],equivalent binding and inhibitory properties
same,donors in which a response was induced,"[2]; CD4+ T cell response, 20 healthy donors of various HLA haplotypes",20%
same,magnitude of response,[2]; mean+/−standard deviation,2.29+/−0.36
same,"soft tissue disease, joint damage and destruction (histology)",[3]; 50 mg/kg,"reduced all measures of soft tissue diseases, joint damage and destruction"
same,CD68 score by IHC,"[3]; 50 mg/kg, compared to vehicle",significant reduction
same,TNF-alpha score by IHC,"[3]; 50 mg/kg, compared to vehicle",significant reduction
same,arthritis clinical scores,"[3]; 50, 10 and 2 mg/kg twice per week (4 doses)",reduced arthritis clinical scores
same,"qualitative and quantitative measurements of clinical disease (paw swelling, ankle diameter, body weight)","[3]; all doses (2, 10, 50 mg/Kg)",significant reversal/mitigation
same,"serum levels of TNFα, IL-6 and IL-17A",[3]; end of study,efficacious in reducing serum levels
same,"serum markers (TIMP-1, GM-CSF, MIP-2, MIP-1β, M-CSF-1, OSM, CXCL10, MCP-5, IL-12p70, INF-γ, IL-12, IL-7)","[3]; terminal serum, ELISA",statistically significant reduction
same,inflammation and joint damage,[4],efficacious
same,animals surviving,[5],70%
same,H&E staining of hind knee joints,[6],No synovitis or fibrosis was observed
same,average MSS score,[6],zero
same,histopathology of primary organs (H&E),[6],No treatment-related abnormalities were observed
same,"rats with slight limping, avoidance of one hind foot (gait score=1)",[6],No symptoms were detected
same,serum chemistry panel,[6],within normal ranges
same,signs of MSS,"[6]; iv, 50 mg/kg",No signs of MSS
same,mean steady-state serum levels,[7],2 to 4 mg/mL
